B1: Methylmalonic aciduria type A protein, mitochondrial (Homo sapiens), Q8IVH4 (parent)
chain: MPMLLPHPHQHFLKGLLRAPFRCYHFIFHSSTHLGSGIPCAQPFNSLGLHCTKWMLLSDGLKRKLCVQTTLKDHTEGLSDKEQRFVDKLYTGLIQGQRACLAEAITLVESTHSRKKELAQVLLQKVLLYHREQEQSNKGKPLAFRVGLSGPPGAGKSTFIEYFGKMLTERGHKLSVLAVDPSSCTSGGSLLGDKTRMTELSRDMNAYIRPSPTRGTLGGVTRTTNEAILLCEGAGYDIILIETVGVGQSEFAVADMVDMFVLLLPPAGGDELQGIKRGIIEMADLVAVTKSDGDLIVPARRIQAEYVSALKLLRKRSQVWKPKVIRISARSGEGISEMWDKMKDFQDLMLASGELTAKRRKQQKVWMWNLIQESVLEHFRTHPTVREQIPLLEQKVLIGALSPGLAADFLLKAFKSRD
partner: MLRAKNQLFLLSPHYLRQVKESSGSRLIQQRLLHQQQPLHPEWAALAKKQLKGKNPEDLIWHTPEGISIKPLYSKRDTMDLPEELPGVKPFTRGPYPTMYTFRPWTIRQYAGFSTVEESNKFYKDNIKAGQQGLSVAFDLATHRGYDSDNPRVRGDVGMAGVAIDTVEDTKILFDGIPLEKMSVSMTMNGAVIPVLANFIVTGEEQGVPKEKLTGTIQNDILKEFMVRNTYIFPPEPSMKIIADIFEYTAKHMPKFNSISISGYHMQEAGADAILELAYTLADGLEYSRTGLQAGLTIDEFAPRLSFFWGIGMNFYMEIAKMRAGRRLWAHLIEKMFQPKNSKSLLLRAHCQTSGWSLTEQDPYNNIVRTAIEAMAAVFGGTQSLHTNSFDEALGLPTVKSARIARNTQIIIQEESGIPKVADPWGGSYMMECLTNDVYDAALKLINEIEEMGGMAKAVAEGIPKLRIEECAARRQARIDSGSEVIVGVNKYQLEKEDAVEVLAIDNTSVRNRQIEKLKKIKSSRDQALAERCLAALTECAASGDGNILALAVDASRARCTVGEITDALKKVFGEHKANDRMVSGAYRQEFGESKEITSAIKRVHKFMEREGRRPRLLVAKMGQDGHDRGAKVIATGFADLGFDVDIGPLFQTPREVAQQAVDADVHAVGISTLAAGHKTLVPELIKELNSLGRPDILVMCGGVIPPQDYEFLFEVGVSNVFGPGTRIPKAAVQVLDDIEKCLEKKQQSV

In this test the parent is B1. The settings on record: with muta_human MMUT.
On to MPMLLPHPHQHFLKGLLRAPFRCYHFIFHSSTHLGSGIPCAQPFNSLGLHCTKWMLLSDGLKRKLCVQTTLKDHTEGLSDKEQRFVDKLYTGLIQGQRACLAEAITLVESTHSRKKELAQVLLQKVLLYHREQEQSNKGKPLAFRVGLSGPPGAGKSTFIEYFGKMLTERGHKLSVLAVDPSSCTSGGSLLGDKTRMTELSRDMNACIRPSPTRGTLGGVTRTTNEAILLCEGAGYDIILIETVGVGQSEFAVADMVDMFVLLLPPAGGDELQGIKRGIIEMADLVAVTKSDGDLIVPARRIQAEYVSALKLLRKRSQVWKPKVIRISARSGEGISEMWDKMKDFQDLMLASGELTAKRRKQQKVWMWNLIQESVLEHFRTHPTVREQIPLLEQKVLIGALSPGLAADFLLKAFKSRD [Y207C], for which the “effect of a mutation on the interaction” value was “disrupting interaction strength”.

Turning to MPMLLPHPHQHFLKGLLRAPFRCYHFIFHSSTHLGSGIPCAQPFNSLGLHCTKWMLLSDGLKRKLCVQTTLKDHTEGLSDKEQRFVDKLYTGLIQGQRACLAEAITLVESTHSRKKELAQVLLQKVLLYHREQEQSNKGKPLAFRVGLSGPPGAGKSTFIEYFGKMLTERGHKLSVLAVDPSSCTSGGSLLGDKTRMTELSRDMNAYIRPSPTRGTLEGVTRTTNEAILLCEGAGYDIILIETVGVGQSEFAVADMVDMFVLLLPPAGGDELQGIKRGIIEMADLVAVTKSDGDLIVPARRIQAEYVSALKLLRKRSQVWKPKVIRISARSGEGISEMWDKMKDFQDLMLASGELTAKRRKQQKVWMWNLIQESVLEHFRTHPTVREQIPLLEQKVLIGALSPGLAADFLLKAFKSRD [G218E], the “effect of a mutation on the interaction” value was “disrupting interaction strength”.

With MPMLLPHPHQHFLKGLLRAPFRCYHFIFHSSTHLGSGIPCAQPFNSLGLHCTKWMLLSDGLKRKLCVQTTLKDHTEGLSDKEQRFVDKLYTGLIQGQRACLAEAITLVESTHSRKKELAQVLLQKVLLYHREQEQSNKGKPLAFRVGLSGPPGAGKSTFIEYFGKMLTERGHKLSVLAVDPSSCTSGRSLLGDKTRMTELSRDMNAYIRPSPTRGTLGGVTRTTNEAILLCEGAGYDIILIETVGVGQSEFAVADMVDMFVLLLPPAGGDELQGIKRGIIEMADLVAVTKSDGDLIVPARRIQAEYVSALKLLRKRSQVWKPKVIRISARSGEGISEMWDKMKDFQDLMLASGELTAKRRKQQKVWMWNLIQESVLEHFRTHPTVREQIPLLEQKVLIGALSPGLAADFLLKAFKSRD [G188R], the “effect of a mutation on the interaction” value was “disrupting interaction strength”.

On to MPMLLPHPHQHFLKGLLRAPFRCYHFIFHSSTHLGSGIPCAQPFNSLGLHCTKWMLLSDGLKRKLCVQTTLKDHTEGLSDKEQRFVDKLYTGLIQGQRACLAEAITLVESTHSRKKELAQVLLQKVLLYHREQEQSNKGKPLAFRVGLSGPPGAGKSTFIEYFGKMLTERGHKLSVLAVDPSSCTSGGSLLDDKTRMTELSRDMNAYIRPSPTRGTLGGVTRTTNEAILLCEGAGYDIILIETVGVGQSEFAVADMVDMFVLLLPPAGGDELQGIKRGIIEMADLVAVTKSDGDLIVPARRIQAEYVSALKLLRKRSQVWKPKVIRISARSGEGISEMWDKMKDFQDLMLASGELTAKRRKQQKVWMWNLIQESVLEHFRTHPTVREQIPLLEQKVLIGALSPGLAADFLLKAFKSRD [G192D], for which the “effect of a mutation on the interaction” value is “decreasing interaction strength”.

As for MPMLLPHPHQHFLKGLLRAPFRCYHFIFHSSTHLGSGIPCAQPFNSLGLHCTKWMLLSDGLKRKLCVQTTLKDHTEGLSDKEQRFVDKLYTGLIQGQRACLAEAITLVESTHSRKKELAQVLLQKVLLYHREQEQSNKGKPLAFRVGLSGPPGAGKSTFIEYFGKMLTERGHKLSVLAVDPSSCTSGGSLLGDKTRMTELSRDMNAYIRPSPTRGTLGGMTRTTNEAILLCEGAGYDIILIETVGVGQSEFAVADMVDMFVLLLPPAGGDELQGIKRGIIEMADLVAVTKSDGDLIVPARRIQAEYVSALKLLRKRSQVWKPKVIRISARSGEGISEMWDKMKDFQDLMLASGELTAKRRKQQKVWMWNLIQESVLEHFRTHPTVREQIPLLEQKVLIGALSPGLAADFLLKAFKSRD [V220M], the “effect of a mutation on the interaction” value is “disrupting interaction strength”.

With MPMLLPHPHQHFLKGLLRAPFRCYHFIFHSSTHLGSGIPCAQPFNSLGLHCTKWMLLSDGLKRKLCVQTTLKDHTEGLSDKEQRFVDKLYTGLIQGQRACLAEAITLVESTHSRKKELAQVLLQKVLLYHREQEQSNKGKPLAFRVGLSGPPGAGKSTFIEYFGKMLTERGHKLSVLAVDPSSCTSGGSLLGDKTRMTELSRDMNAYIRPSPTRGTLGGVTRTTNEAILLCEGAGYDIILIETVGVGQSEFAVADMVDMFVLLLPPAGGDELQGIKRGIIEMADLVAVTKSVGDLIVPARRIQAEYVSALKLLRKRSQVWKPKVIRISARSGEGISEMWDKMKDFQDLMLASGELTAKRRKQQKVWMWNLIQESVLEHFRTHPTVREQIPLLEQKVLIGALSPGLAADFLLKAFKSRD [D292V], the “effect of a mutation on the interaction” value was “disrupting interaction strength”.

For the variant MPMLLPHPHQHFLKGLLRAPFRCYHFIFHSSTHLGSGIPCAQPFNSLGLHCTKWMLLSDGLKRKLCVQTTLKDHTEGLSDKEQRFVDKLYTGLIQGQRACLAEAITLVESTHSRKKELAQVLLQKVLLYHREQEQSNKGKPLAFRVGLSGPPGAGKSTFIEYFGKMLTERGHKLSVLAVDPSSCTSGGSLLGDKTRMTELSRDMNAYIRPSPTRGTLGGVTRTTNEAILLCEGAGYDIILIETVGVGQSEFAVADMVDMFVLLLPPAGGDELQSIKRGIIEMADLVAVTKSDGDLIVPARRIQAEYVSALKLLRKRSQVWKPKVIRISARSGEGISEMWDKMKDFQDLMLASGELTAKRRKQQKVWMWNLIQESVLEHFRTHPTVREQIPLLEQKVLIGALSPGLAADFLLKAFKSRD [G274S], the “effect of a mutation on the interaction” value was “decreasing interaction strength”.

For the origin of these results see IntAct's records for PubMed 28497574.
